# Test results reported in patent US20250197505A1.
# What was measured:
# [1] = biological target: human CD94 expressed on cells (human primary NK cells in PBMCs; HEK cells expressing human CD94) (human) (UniProt Q13241); assay: flow cytometry, PE HLA-E tetramer on NK cells of PBMCs pre-incubated with antibody; competitor HLA-E tetramer
# [2] = biological target: human CD94 expressed on cells (human primary NK cells in PBMCs; HEK cells expressing human CD94) (human) (UniProt Q13241); assay: flow cytometry titration on CD3-CD56+ NK cells in healthy donor PBMCs; 'Affinity on Human NK Cells'; the filing derives these affinities as EC50 of titration curves (the 2.6nM of 18H3 is labelled EC50 in FIG. 1)
# [3] = biological target: human CD94 expressed on cells (human primary NK cells in PBMCs; HEK cells expressing human CD94) (human) (UniProt Q13241); assay: HLA-E tetramer blocking assay, flow cytometry on CD3-CD56+ NK cells in healthy donor PBMCs; antibody at one saturating concentration, blocked ligand PE-labelled HLA-E tetramer; percent blocking = 100-((percent HLA-E positive with antibody)/(percent HLA-E positive with isotype)*100)
# [4] = biological target: human CD94 expressed on cells (human primary NK cells in PBMCs; HEK cells expressing human CD94) (human) (UniProt Q13241); assay: cell-based or functional assay
# [5] = biological target: human CD94 expressed on cells (human primary NK cells in PBMCs; HEK cells expressing human CD94) (human) (UniProt Q13241); assay: competition assay, flow cytometry on CD3-CD56+ NK cells in healthy donor PBMCs; HP-3B1 titrated in the presence of Human IgG1 control (no competitor)
# [6] = biological target: human CD94 expressed on cells (human primary NK cells in PBMCs; HEK cells expressing human CD94) (human) (UniProt Q13241); assay: competition assay, flow cytometry on CD3-CD56+ NK cells in healthy donor PBMCs; HP-3B1 titrated in the presence of Mouse IgG1 control (no competitor)
# [7] = biological target: human CD94 expressed on cells (human primary NK cells in PBMCs; HEK cells expressing human CD94) (human) (UniProt Q13241); assay: competition assay, flow cytometry on CD3-CD56+ NK cells in healthy donor PBMCs; HP-3B1 titrated in the presence of Human IgG1 control (no competitor); remark: listed apart in the source
# Sequence of human CD94 expressed on cells (human primary NK cells in PBMCs; HEK cells expressing human CD94) (human) (Q13241 whole entry): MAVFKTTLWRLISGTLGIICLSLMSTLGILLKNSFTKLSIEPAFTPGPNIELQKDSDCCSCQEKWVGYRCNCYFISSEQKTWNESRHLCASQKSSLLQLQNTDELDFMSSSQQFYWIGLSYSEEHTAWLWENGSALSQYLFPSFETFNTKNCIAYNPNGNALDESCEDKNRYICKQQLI
Substance,percent HLA-E blocking [1] [%],EC50 [2] [nM],HLA-E Blocking [3] [%],"percent decrease in MFI (antibody internalization assay), comparing 0.5 hours to 24 hours at 37° C. [4] [%]",EC50 (read off the curve) [5] [nM],EC50 (read off the curve) [6] [nM],EC50 (read off the curve) [7] [nM]
commercial anti-CD94 antibody clone DX22,> 40,0.15,99,56,,,
commercial anti-CD94 antibody clone HP-3D9,> 40,0.07,99,54,,,
commercial anti-CD94 antibody clone 131412,> 40,11,40,,,,
commercial anti-CD94 antibody clone HP-3B1,> 40,3,99.8,,2,2,3
commercial anti-CD94 antibody clone 12K45,> 40,7,47,,,,
